Data as given in patent publication US20220095596A1, “USE OF ECM1 GENE-KNOCKOUT MOUSE IN SCREENING OF ANTI-HEPATIC FIBROSIS DRUG” (CENTER FOR EXCELLENCE IN MOLECULAR CELL SCIENCE, CHINESE …, priority 2018, published 2022).

Legend:
[1] = system: primary stellate cells (HSC); assay: Self-activation of primary stellate cells (HSC) cultured in vitro, related gene expression by RT-PCR; assay type: cell-based; settings: ECM1 protein 50 µg/ml, cRGD 10 µg/ml; WT mouse HSC cultured in vitro 2 weeks, vs unrelated IgG (NC)
Method: B: Primary stellate cells (HSC) from the liver of wild-type mouse (WT) are isolated and cultured in vitro for 2 weeks. Recombinant mouse ECM1 protein ([…]), cRGD ([…]) or unrelated IgG protein ([…]) are added to the culture medium as negative control (NC). Changing fresh culture medium every 3 days. Two weeks later, It is lysed with TRIZO and mRNA is extracted, and cDNA is obtained by reverse transcription. Finally, the expression of related genes is detected by RT-PCR.
The primary stellate cells (HSC) of the mouse liver will self-activate during in vitro culture. This is because of the change in culture conditions, the Latent TGF-β1 secreted by the cells will be activated by integrin αv on the cell surface to activate stellate cells (HSC). In this process, the addition of integrin αv inhibitor (cRGD) or TGF-β1 neutralizing antibody will inhibit the self-activation of stellate cells (HSC).
Therefore, primary stellate cells (HSC) from the liver of wild-type mice (WT) were isolated and cultured in vitro for 2 weeks. Recombinant mouse ECM1 protein ([…]), cRGD ([…]) or unrelated IgG protein ([…]) were added to the culture medium as negative control (NC). Changing fresh culture solution every 3 days. […] Finally, the expression of related genes was detected by RT-PCR to determine the activation degree of primary stellate cells (HSC).

[2] = system: Latent TGF-β1 activation on the surface of stellate cells (HSC); assay: TGF-β1 activity reporter co-culture of primary HSC with NIH-3T3 luciferase reporter cells; assay type: cell-based; settings: 50 g/ml in culture medium, 16 hours of culture, WT mouse HSC with NIH-3T3 reporter cells, vs unrelated IgG (NC)
Method: A: Primary stellate cells (HSC) from the liver of wild-type mice (WT) are isolated and co-cultured with NIH-3T3 cells containing the TGF-β1 activity reporter system. Recombinant mouse ECM1 protein ([…]), cRGD ([…]) or unrelated IgG protein ([…]) are added to the culture medium as negative control (NC). After 16 hours of the culture, the cells are lysed, and Luciferase activity in the lysate is detected.
The process of Latent TGF-β1 activation to TGF-β1 is a transient effect. Activated TGF-β1 will bind to TGF-β1 receptor on the adjacent cell surface, phosphorylating the downstream SMAD protein, and then activating the downstream gene expression. In order to better detect the process of Latent TGF-β1 activation to TGF-β1, we used a co-culture system to detect the […] activation process that occurs on the surface of HSC stellate cells. A luciferase reporter gene was stably transfected into NIH-3T3 cells. There are 4 repeated SMAD binding sites in the upstream of this reporter gene. […]
Firstly, primary stellate cells (HSC) of wild-type mouse (WT) liver were isolated and co-cultured with NIH-3T3 cells containing TGF-β1 activity reporter system. […] After 16 hours of culture, the cells were lysed, and Luciferase activity in the lysate was detected. […]

## cRGD [reference compound]
[1]
  activation of stellate cells (HSC), expression of related genes by RT-PCR: significantly inhibit

B1: recombinant mouse ECM1 protein: Recombinant mouse extracellular matrix protein 1 added to the culture medium (protein, UniProt Q61508 20-559, looked up)
Extracellular matrix protein 1: ASEGAFKASDQREMTPERLFQHLHEVGYAAPPSPPQTRRLRVDHSVTSLHDPPLFEEQREVQPPSSPEDIPVYEEDWPTFLNPNVDKAGPAVPQEAIPLQKEQPPPQVHIEQKEIDPPAQPQEEIVQKEVKPHTLAGQLPPEPRTWNPARHCQQGRRGVWGHRLDGFPPGRPSPDNLKQICLPERQHVIYGPWNLPQTGYSHLSRQGETLNVLETGYSRCCRCRSDTNRLDCLKLVWEDAMTQFCEAEFSVKTRPHLCCRLRGEERFSCFQKEAPRPDYLLRPCPVHQNGMSSGPQLPFPPGLPTPDNVKNICLLRRFRAVPRNLPATDAIQRQLQALTRLETEFQRCCRQGHNHTCTWKAWEGTLDGYCERELAIKTHPHSCCHYPPSPARDECFAHLAPYPNYDRDILTLDLSRVTPNLMGQLCGSGRVLSKHKQIPGLIQNMTIRCCELPYPEQACCGEEEKLAFIENLCGPRRNSWKDPALCCDLSPEDKQINCFNTNYLRNVALVAGDTGNATGLGEQGPTRGTDANPAPGSKEE
[2]
  activation of Latent TGF-β1 on the surface of stellate cells (HSC), Luciferase activity: significantly inhibit
[1]
  activation of stellate cells (HSC), expression of related genes by RT-PCR: significantly inhibit
